For six molecules, Kd results are on record in paper PMC12855868, “Deep Mutational Scanning of FDX1 Identifies Key Structural Determinants of Lipoylation and Cuproptosis” (Nature Communications, 2025).

Where a chain is given by its changes, count along the chain named. In names and notes the source's numbering stands.

T1: LIAS (aa 28-372), tagless (UniProt O43766 28-372)
T1 construct: lipoic acid synthase (LIAS), residues 28-372, lacking the mitochondrial transit peptide; pDWSUMO; Cleavage of the SUMO tag by ULP1 leaves a Gly-His appendage at the N-terminus; Carries reconstituted Fe-S clusters; also called lipoic acid synthase; source: E. coli BL21 (DE3) carrying pDB1282, purified, iron-sulfur clusters reconstituted; not shown: His6-SUMO, N-terminal, cleaved
T1 sequence (looked up): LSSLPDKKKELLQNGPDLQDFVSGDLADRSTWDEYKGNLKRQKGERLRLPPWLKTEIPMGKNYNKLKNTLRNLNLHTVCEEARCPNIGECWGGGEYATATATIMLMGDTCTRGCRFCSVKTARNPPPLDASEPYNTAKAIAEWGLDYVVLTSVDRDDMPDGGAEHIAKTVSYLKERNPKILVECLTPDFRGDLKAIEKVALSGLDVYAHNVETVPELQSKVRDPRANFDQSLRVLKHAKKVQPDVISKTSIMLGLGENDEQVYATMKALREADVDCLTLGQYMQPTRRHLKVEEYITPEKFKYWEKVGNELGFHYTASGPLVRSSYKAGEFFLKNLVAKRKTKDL

T2: FDX1 WT (aa 61-184), N-terminal hexa-histidine tag (human), P10109
T2 chain: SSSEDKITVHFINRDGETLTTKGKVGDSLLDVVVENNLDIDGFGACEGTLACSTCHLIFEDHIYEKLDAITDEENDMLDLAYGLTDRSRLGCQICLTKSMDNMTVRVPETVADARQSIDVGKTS

T3: FDXR (a.a 33-491), tagless (human, UniProt P22570 33-491, labelled with the RED-NHS 2nd generation protein labeling kit)
T3 construct: ferredoxin reductase (FDXR), human, residues 33-491, lacking the mitochondrial transit peptide; pDWSUMO; Cleavage of the SUMO tag by ULP1 leaves a Gly-His appendage at the N-terminus; also called ferredoxin reductase; mitochondrial NADPH-dependent ferredoxin reductase; source: E. coli BL21 (DE3), purified; not shown: His6-SUMO, N-terminal, cleaved
T3 sequence (looked up): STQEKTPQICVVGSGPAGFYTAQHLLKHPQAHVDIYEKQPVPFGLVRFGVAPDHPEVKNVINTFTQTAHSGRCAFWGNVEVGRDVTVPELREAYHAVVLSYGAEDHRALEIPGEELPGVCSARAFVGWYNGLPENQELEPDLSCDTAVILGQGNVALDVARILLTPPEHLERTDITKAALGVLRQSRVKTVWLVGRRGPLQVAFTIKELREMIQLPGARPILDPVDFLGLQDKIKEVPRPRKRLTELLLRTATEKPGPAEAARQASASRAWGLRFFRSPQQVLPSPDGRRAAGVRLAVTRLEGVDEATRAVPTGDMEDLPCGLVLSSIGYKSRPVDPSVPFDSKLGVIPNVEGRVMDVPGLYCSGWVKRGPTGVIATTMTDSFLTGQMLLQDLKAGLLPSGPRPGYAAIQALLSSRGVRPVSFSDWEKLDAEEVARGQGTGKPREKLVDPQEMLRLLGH

B1: FDX1 D136R (aa 61-184), N-terminal hexa-histidine tag (domain or fragment, human, UniProt P10109 61-184, looked up)
chain: T2 chain with D76R
notes: ferredoxin 1 (FDX1), human, residues 61-184, lacking the mitochondrial transit peptide; pET28a; Carries a reconstituted Fe-S cluster; Labelled with Red-Tris-NTA dye in the LIAS assay only; source: E. coli BL21 (DE3) carrying pDB1282, purified, iron-sulfur cluster reconstituted; not shown: His6, N-terminal, kept
B2: FDX1 D139A (aa 61-184), N-terminal hexa-histidine tag (domain or fragment, human, UniProt P10109 61-184, looked up)
chain: T2 chain with D79A
notes: as for B1
B3: FDX1 D136A (aa 61-184), N-terminal hexa-histidine tag (domain or fragment, human, UniProt P10109 61-184, looked up)
chain: T2 chain with D76A
notes: as for B1
B4: FDX1 D139R (aa 61-184), N-terminal hexa-histidine tag (domain or fragment, human, UniProt P10109 61-184, looked up)
chain: T2 chain with D79R
notes: as for B1
B5: LIAS (aa 28-372), tagless, O43766 28-372 (enzyme)
chain: T1 sequence (looked up)
B6: FDX1 WT (aa 61-184), N-terminal hexa-histidine tag (domain or fragment, human, UniProt P10109 61-184, looked up)
chain: T2 chain
notes: ferredoxin 1 (FDX1), human, residues 61-184, lacking the mitochondrial transit peptide; pET28a; Carries a reconstituted Fe-S cluster; In the FDX1-LIAS TRIC assay it was labelled on the His tag with the Red-Tris-NTA 2nd generation dye; in the FDXR assay it was the unlabelled ligand; also called ferredoxin 1; source: E. coli BL21 (DE3) carrying pDB1282, purified, iron-sulfur cluster reconstituted; …

The first test addresses T1, LIAS (aa 28-372), tagless. Put plainly: Temperature-Related Intensity Change (TRIC) fluorescence; 100 nM Red-Tris-NTA-labelled His-tagged FDX1 WT or variant as target, tagless LIAS serially diluted (10 points from 63 µM); anaerobic; 25 mM MOPS pH 7.5, 125 mM KCl, 125 mM NaCl, 5% glycerol, 0.05% Tween; 30 min at room temperature, read at 22 °C; Dianthus NT.23. As to conditions: both partners purified.
B1: the Kd is 4500 ± 800 nM.
For B2, the dissociation constant Kd turned out to be 4900 ± 600 nM.
Same read-out and setting: the same measure for B3: 3200 ± 300 nM.
B4 gave a Kd of 2500 ± 600 nM.

Another test concerns the target T2, FDX1 WT (aa 61-184), N-terminal …. Described as above. As to conditions: remark: other sources report otherwise.
Consider B5, for which the Kd turned out to be 3200 nM. In other words, the single-digit micromolar range.

Another test concerns the target T3, FDXR (a.a 33-491), tagless. Put plainly: Temperature-Related Intensity Change (TRIC) fluorescence; 50 nM RED-NHS-labelled tagless FDXR as target, His-tagged FDX1 WT or variant serially diluted (11 points from 54-68 µM); anaerobic; 25 mM MOPS pH 7.5, 125 mM KCl, 125 mM NaCl, 5% glycerol, 0.05% Tween; 30 min at room temperature, read at 22 °C; Dianthus NT.23. Particulars: both partners purified.
Consider B6, for which binding was characterised by a dissociation constant (Kd) of 1500 ± 200 nM.
The same measure, in the same setting: to B1 belongs 2200 ± 300 nM.
B2 came in with a Kd of 1500 ± 300 nM.
With B3, the Kd was 1800 ± 300 nM.
The molecule B4 displayed a dissociation constant (Kd) of 2100 ± 200 nM.
